The record followed here is US20250333531A1 (NORDIC NANOVECTOR ASA, published 2025).

Assay [1] deals with FcγRIIIa-V158 on Promega Jurkat effector cells (UniProt P08637 17-254, limits assumed). The experiment in a line: cell-based or functional assay.
For assay [2], the target named is T1, human CD37 (human, UniProt P11049 1-281).
T1 construct: whole, on cells; also called CD37 antigen
T1 sequence (looked up): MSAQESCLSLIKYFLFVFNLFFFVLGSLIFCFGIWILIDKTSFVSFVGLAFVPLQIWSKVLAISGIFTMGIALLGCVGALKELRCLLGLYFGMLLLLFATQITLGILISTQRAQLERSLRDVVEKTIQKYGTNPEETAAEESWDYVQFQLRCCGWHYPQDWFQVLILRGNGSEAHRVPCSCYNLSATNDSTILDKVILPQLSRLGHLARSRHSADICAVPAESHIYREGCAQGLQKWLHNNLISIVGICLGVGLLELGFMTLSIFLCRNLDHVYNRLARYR
The experiment in a line: competitive radioligand binding on Ramos cells; ratio to Ki of NNV009 (assumed 2.3). The procedure: (§1) The Eppendorf LoBind tubes 1.5 mL were used to prepare dilutions (working concentrations) of Abs. As much as 0.2 mL of the cell suspension (800 000 cells/tube), after it has been cooled down for 30 min on ice, was aliquoted to glass 12×75 mm counting tubes. Each tube was pre-labeled with a code specifically determining each sample. The tubes with cells were maintained on ice for whole time course of the experiment except for the time when counted on the gamma counter. The tubes were agitated on a planetary shaker at 350 RPM, 4° C. (on ice) for 15 min. […] The tubes were placed on the planetary shaker (GL 064), on ice, and shaken for 4 hours at 350 RPM. After 3.5 hours past from the beginning of incubation, the samples were assayed on Wizard2 gamma counter using protocol “Lu-177 General” (all detectors except for the detector #3 were used). Upon completion the counting, the cells were washed with ice-cold 0.5 mL 0.5% BSAPBS three times. All the tubes were assayed on the Wizard2 gamma counter again using the same sequence and parameters as before the washing.

Assay [3] has as its target T1, human CD37. Kind of assay: competitive radioligand binding on Ramos cells against 177Lu-NNV009 (2.7 nM), gamma counting. The method, then: as §1
In assay [4] the target is T2, biotinylated truncated soluble human FcγRI (human, UniProt P12314 16-292, biotinylated).
T2 construct: extracellular domain; Bought; preformed complex with AP-streptavidin
T2 sequence (P12314 16-292): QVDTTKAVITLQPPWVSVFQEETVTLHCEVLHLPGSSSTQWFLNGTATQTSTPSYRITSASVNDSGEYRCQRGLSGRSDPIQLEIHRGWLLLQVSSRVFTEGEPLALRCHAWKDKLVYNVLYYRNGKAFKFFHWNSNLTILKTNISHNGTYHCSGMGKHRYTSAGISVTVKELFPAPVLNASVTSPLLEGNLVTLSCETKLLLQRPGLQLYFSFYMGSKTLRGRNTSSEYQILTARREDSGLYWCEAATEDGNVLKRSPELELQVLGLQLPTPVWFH
The experiment in a line: ELISA: IgG coated at 10000-4.5 ng/ml, biotinylated truncated soluble human FcγRI 250 ng/ml pre-complexed with AP-streptavidin, absorbance 405 nm. The procedure: 96 well EIA/RIA plates (CorningCostar) were coated with 100 μl titrated amounts of IgG variants (10.000-4.5 ng/ml) diluted in PBS and incubated O/N at 4° C. Remaining surface area were blocked with PBS containing 0.05% T and 4% S for 1 h at RT. The plates were washed four times with PBS/T using a Hydrospeed™ plate washer (Tecan). […] Following washing as above, bound receptor was visualized by addition of phosphatase substrate (1 mg/ml in diethanolamine buffer) (Sigma Aldrich). The plates were developed for 15-20 min before the 405 nm absorption values were recorded using a TECAN Sunrise spectrophotometer (Tecan).
(In an ELISA, binding on a coated surface is turned into a signal by an enzyme label.)

The target of assay [5] is T3, biotinylated soluble human FcRn (human, UniProt P55899 24-297; P61769 21-119, biotinylated).
T3 construct: extracellular domain; Bought; Beta-2-microglobulin is not mentioned; Used as preformed complex with AP-streptavidin
T3 sequence (P55899 24-297 limits assumed, chain 1 of 2): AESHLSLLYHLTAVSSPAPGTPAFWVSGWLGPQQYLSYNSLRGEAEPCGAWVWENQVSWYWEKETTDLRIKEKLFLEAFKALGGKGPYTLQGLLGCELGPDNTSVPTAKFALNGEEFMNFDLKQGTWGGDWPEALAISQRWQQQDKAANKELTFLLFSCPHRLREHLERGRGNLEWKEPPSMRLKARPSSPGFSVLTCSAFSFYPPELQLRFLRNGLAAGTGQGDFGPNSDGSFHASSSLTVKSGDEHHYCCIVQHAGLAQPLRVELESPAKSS
T3 sequence (P61769 21-119 limits assumed, chain 2 of 2): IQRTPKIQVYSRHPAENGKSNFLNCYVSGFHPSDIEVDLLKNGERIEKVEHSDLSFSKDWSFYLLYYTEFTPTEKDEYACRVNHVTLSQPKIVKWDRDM
The experiment in a line: ELISA: IgG coated at 1000-0.45 ng/ml, biotinylated soluble human FcRn 250 ng/ml pre-complexed with AP-streptavidin, pH 6.0, absorbance 405 nm. The method, then: Remaining surface area were blocked with PBS containing 0.05% T and 4% S for 1 h at RT. The plates were washed four times with PBS/T using a Hydrospeed™ plate washer (Tecan). […] Following washing as above with PBS/T or FcRn binding buffer ([…], 0.1 M NaCl, 0.05% T, pH 6.0), bound receptor was visualized by addition of phosphatase substrate (1 mg/ml in diethanolamine buffer) (Sigma Aldrich). The plates were developed for 20-30 min before the 405 nm absorption values were recorded using a TECAN Sunrise spectrophotometer (Tecan).

B1: DuoHexaBody-CD37 (bispecific antibody, human IgG1, kappa)
heavy 1: not shown
light 1: YDMTQSPSTLSASVGDRVTITCQASQNIIDYLAWYQQKPGKAPKLLIHKASTTLASGVPSRFKGSGSGTEFTLTISSLQPDDFATYYCQQGYSNSNIDNTFGGGTKVEIKRTVAAPSVFIFPPSDEQLKSGTASVVCLLNNFYPREAKVQWKVDNALQSGNSQESVTEQDSKDSTYSLSSTLTLSKADYEKHKVYACEVTHQGLSSPVTKSFNRGEC
heavy 2: not shown
light 2: DVVMTQSPSTLSASVGDRVTITCQASQNIDSNLAWYQQKPGKAPKFLIYYASNLPFGVPSRFKGSGSGTEFTLTISSLQPDDFATYYCQSADVGSTYVAAFGGGTKVEIKRTVAAPSVFIFPPSDEQLKSGTASVVCLLNNFYPREAKVQWKVDNALQSGNSQESVTEQDSKDSTYSLSSTLTLSKADYEKHKVYACEVTHQGLSSPVTKSFNRGEC
For the molecule B1, in assay [1], the “average potency of the ADCC response (Example 13)” value was 0.9 nM and the “efficacy (Emax) relative to NNV024, ADCC FcγRIIIa-158V reporter assay” value was determined as 53%.

B2: rituximab (antibody, human IgG1, kappa)
chain 1: not shown
chain 2: QIVLSQSPAILSASPGEKVTMTCRASSSVSYIHWFQQKPGSSPKPWIYATSNLASGVPVRFSGSGSGTSYSLTISRVEAEDAATYYCQQWTSNPPTFGGGTKLEIKRTVAAPSVFIFPPSDEQLKSGTASVVCLLNNFYPREAKVQWKVDNALQSGNSQESVTEQDSKDSTYSLSSTLTLSKADYEKHKVYACEVTHQGLSSPVTKSFNRGEC
As to B2, in assay [1], the “average potency of the ADCC response (Example 13)” value stood at 21.3 nM and the “efficacy (Emax) relative to NNV024, ADCC FcγRIIIa-158V reporter assay” value was determined as 75%.

B3: NNV025 (antibody, human IgG1, kappa)
heavy: not shown
light: DIQMTQSPSSLSASVGDRVTITCKASQDVSTAVDWYQQKPGKSPKLLINWASTRHTGVPSRFSGSGSGTDYTLTISSLQPEDFATYYCRQHYSTPFTFGQGTKLEIKRTVAAPSVFIFPPSDEQLKSGTASVVCLLNNFYPREAKVQWKVDNALQSGNSQESVTEQDSKDSTYSLSSTLTLSKADYEKHKVYACEVTHQGLSSPVTKSFNRGEC
notes: Humanized IgG1 kappa; also called AH02871HC + AH02877LC; AH2871HC_2877LC
Broadly, the EC50 is the concentration giving half of the maximal effect. As a reminder, the Ki is a measure of affinity in units of concentration, obtained from inhibition or displacement. Turning to B3, the “Ki(NNV009)/Ki(NNV020 var.)” value with human CD37 [2] was 4.31 fold. In the assay with human CD37 [3], this molecule gave an EC50 of 1.16 nM and a Ki of 0.533 nM.

B4: AH02886 (antibody, human IgG1, kappa, V domains shown)
VH: QVQLVQSGAELKKPGASVKVSCKASGYSFTDYNMYWVKQAPGQRLEWMGYIDPYNGDTTYNQKFKGRVTLTVDTSASTAYMELSSLRSEDTAVYYCARSPYGHYAMDYWGQGTLVTVSS
VL: DIQMTQSPSSLSTSVGDRVTITCKASQDVSTAVDWYQQKPGKAPKLLINWASTRHTGVPSRFSGSGSGTDYTLTISSLQPEDFATYYCRQHYSTPFTFGQGTKLEIKR
notes: Humanized IgG1 kappa; also called NNV027; NNV020 #5
For B4, the “Ki(NNV009)/Ki(NNV020 var.)” value in the assay with human CD37 [2] was determined as 4.3 fold. Also, in the assay with human CD37 [3], the EC50 was found to be 1.16 nM and the Ki turned out to be 0.535 nM.

B5: AH02871 (antibody, human IgG1, kappa, V domains shown)
VH: QVQLVQSGAEVVKPGASVKVSCKASGYSFTDYNMYWVKQAPGQRLEWMGYIDPYNGDTTYNQKFKGRVTITRDTSASTAYMELSSLRSEDTAVYYCARSPYGHYAMDYWGQGTLVTVSS
VL: DIQMTQSPSSLSASVGDRVTITCKASQDVSTAVDWYQQKPGKAPKLLINWASTRHTGVPSRFSGSGSGTDYTLTISSMQPEDFATYYCRQHYSTPFTFGQGTKLEIKR
notes: Humanized IgG1 kappa; also called NNV026; NNV020 #1
In the case of B5, the “Ki(NNV009)/Ki(NNV020 var.)” value with human CD37 [2] amounted to 4.27 fold. In the assay with human CD37 [3], this molecule displayed an EC50 of 1.17 nM and a Ki of 0.539 nM.

B6: AH02877 (antibody, human IgG1, V domains shown)
VH: QVQLVQSGAEVVKPGASVKVSCKASGYSFTDYNMYWVKQAPGQRLEWMGYIDPYNGDTTYNQKFKGRATLTVDTSASTAYIELSSLRSEDTAVYYCARSPYGHYAMDYWGQGTLVTVSS
VL: DIQMTQSPSSLSASVGDRVTITCKASQDVSTAVDWYQQKPGKSPKLLINWASTRHTGVPSRFSGSGSGTDYTLTISSLQPEDFATYYCRQHYSTPFTFGQGTKLEIKR
notes: Full-length human IgG1 kappa; constant domains from NNV003; also called NNV020 #3
Turning to B6, in the assay with human CD37 [2], the “Ki(NNV009)/Ki(NNV020 var.)” value is 5.45 fold. In the assay with human CD37 [3], this molecule returned a 50% effective concentration (EC50) of 0.917 nM and a Ki of 0.422 nM.

B7: AH02875 (antibody, human IgG1, V domains shown)
VH: QIQLVQSGAELKKPGASVKVSCKASGYSFTDYNMYWVRQAPGQRLEWMGYIDPYNGDTTYNQKFKGRATITRDTSASTAYIELSSLRSEDTAVYYCARSPYGHYAMDYWGQGTLVTVSS
VL: DIQMTQSPSSLSASVGDRVTITCKASQDVSTAVDWYQQKPGKSPKLLINWASTRHTGVPSRFSGSGSGTDYTLTISSMQPEDFATYYCRQHYSTPFTFGQGTKLEIKR
notes: Full-length human IgG1 kappa; also called NNV020 #2
On to B7, for which, in the assay with human CD37 [2], the “Ki(NNV009)/Ki(NNV020 var.)” value was determined as 4.36 fold. In the assay with human CD37 [3], this molecule showed an EC50 of 1.15 nM and a Ki of 0.528 nM.

B8: AH02879 (antibody, human IgG1, V domains shown)
VH: QIQLVQSGAEVVKPGASVKVSCKASGYSFTDYNMYWVKQAPGQRLEWIGYIDPYNGDTTYNQKFKGRATLTRDTSASTAYMELSSLRSEDTAVYYCARSPYGHYAMDYWGQGTLVTVSS
VL: DIQMTQSPSSLSTSVGDRVTITCKASQDVSTAVDWYQQKPGKSPKLLINWASTRHTGVPSRFSGSGSGTDYTLTISSMQPEDFATYYCRQHYSTPFTFGQGTKLEIKR
notes: Full-length human IgG1 kappa; constant domains from NNV003; also called NNV020 #4
On to B8, for which, in the assay with human CD37 [2], the “Ki(NNV009)/Ki(NNV020 var.)” value is 5.22 fold. In addition, in the assay with human CD37 [3], the midpoint of the response, the EC50, lay at 0.959 nM and the Ki stood at 0.441 nM.

B9: TCMC-NNV003 (antibody, human IgG1, kappa)
heavy: not shown
light: DIVMTQSHKLLSTSVGDRVSITCKASQDVSTAVDWYQQKPGQSPKLLINWASTRHTGVPDRFTGSGSGTDYTLTISSMQAEDLALYYCRQHYSTPFTFGSGTKLEIKRTVAAPSVFIFPPSDEQLKSGTASVVCLLNNFYPREAKVQWKVDNALQSGNSQESVTEQDSKDSTYSLSSTLTLSKADYEKHKVYACEVTHQGLSSPVTKSFNRGEC
modifications: TCMC chelator conjugate; sites not stated; TCMC chelator conjugate (GGG-TCMC); sites not stated
notes: chains are those of NNV003; also called NNV003-TCMC; NNV003-GGG-TCMC
Broadly, the EC50 (read off the curve) is the concentration needed to bring the measured effect to its halfway point. Low readings indicate higher potency in that assay, high ones lower potency in that assay. For the molecule B9, the “EC50 (read off the curve)” value was around 400 ng/mL in assay [4] and around 60 ng/mL in assay [5].
